One block for each substance: values may come before it.
Assays:
[1] = molecular target: ECFP-CSB expressed in CS1AN.S3.G2 cells (human) (UniProt Q03468); assay: co-IP
[2] = molecular target: Cockayne syndrome B (CSB) protein, full-length, purified recombinant (human) (UniProt Q03468); assay: ELISA
[3] = molecular target: APE1, major human apurinic/apyrimidinic (AP) endonuclease, full-length, purified recombinant (human) (UniProt P27695); assay: ELISA
[4] = molecular target: APE1, endogenous in ECFP-CSB-CS1AN cell extracts (human (endogenous in CS1AN fibroblasts)) (UniProt P27695); assay: co-IP

percent co-immunoprecipitated [1]: 5 to 50%
Substance: APE1, endogenous in ECFP-CSB-CS1AN cell extracts (from UniProt P27695 1-318) (enzyme)

EC50 [2]: > 20 nM
Substance: APE1, major human apurinic/apyrimidinic (AP) endonuclease, full-length, purified recombinant (from UniProt P27695 1-318) (enzyme)

EC50 [3]: > 4.5 nM
Substance: Cockayne syndrome B (CSB) protein, full-length, purified recombinant (from UniProt Q03468 1-1493) (natural protein)

percent co-immunoprecipitated [4]: 5 to 50%
Substance: ECFP-CSB expressed in CS1AN.S3.G2 cells (from UniProt Q03468 1-1493) (natural protein)
